Assay results: patent publication EP2385124A2 (Arbor Vita Corporation, dated 2011)
One block for each binder: values may come before it. No end group written: not given here. *: point of attachment. Biotin = O=C1N[C@H]2[C@H](CS[C@H]2CCCCC(=O)*)N1

Legend:
[1] = molecular target: T1, GST-PSD95 PDZ domains 1-3 fusion protein (human, UniProt P78352 58-395); assay: A/G plate assay (TABLE 2)
T1 construct: domain: PDZ domains 1-3 (of 3); AA numbers count on the GenBank entry; not shown: glutathione-S transferase (GST) as encoded by vector pGEX-3X (Pharmacia)

[2] = molecular target: T2, GST-MPP1 PDZ domain fusion protein (UniProt Q00013 67-152); assay: A/G plate assay (TABLE 2)
T2 construct: domain: PDZ domain 1 (of 1); AA numbers count on the GenBank entry; also called 55 Kd erythrocyte membrane protein; not shown: glutathione-S transferase (GST) as encoded by vector pGEX-3X (Pharmacia)
T2 sequence: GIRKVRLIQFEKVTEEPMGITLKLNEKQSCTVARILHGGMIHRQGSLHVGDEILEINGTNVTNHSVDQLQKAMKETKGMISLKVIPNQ

[3] = molecular target: T3, GST-prIL16 PDZ domains 1-2 fusion protein (UniProt Q14005 1111-1324); assay: A/G plate assay (TABLE 2)
T3 construct: domain: PDZ domain 1-2 (of 2); AA numbers count on the GenBank entry; also called putative interleukin 16 precursor; not shown: glutathione-S transferase (GST) as encoded by vector pGEX-3X (Pharmacia)
T3 sequence: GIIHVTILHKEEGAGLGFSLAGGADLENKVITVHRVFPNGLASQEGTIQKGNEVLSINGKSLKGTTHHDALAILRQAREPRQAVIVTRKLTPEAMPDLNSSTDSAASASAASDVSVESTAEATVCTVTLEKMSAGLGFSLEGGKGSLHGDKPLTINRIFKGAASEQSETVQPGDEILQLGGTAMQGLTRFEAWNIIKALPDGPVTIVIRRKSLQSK

[4] = molecular target: T4, GST-PTN-4 PDZ domain fusion protein (UniProt P29074 516-604); assay: A/G plate assay (TABLE 2)
T4 construct: domain: PDZ domain 1 (of 1); AA numbers count on the GenBank entry; also called protein-tyrosine phosphatase meg1; not shown: glutathione-S transferase (GST) as encoded by vector pGEX-3X (Pharmacia)
T4 sequence: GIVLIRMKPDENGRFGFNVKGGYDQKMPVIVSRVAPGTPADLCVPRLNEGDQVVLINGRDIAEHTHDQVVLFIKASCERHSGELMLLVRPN

[5] = molecular target: T5, GST-AF6 PDZ domain fusion protein (UniProt P55196 1001-1093); assay: A/G plate assay (TABLE 2)
T5 construct: domain: PDZ domain 1 (of 1); AA numbers count on the GenBank entry; also called af-6 protein; not shown: glutathione-S transferase (GST) as encoded by vector pGEX-3X (Pharmacia)
T5 sequence: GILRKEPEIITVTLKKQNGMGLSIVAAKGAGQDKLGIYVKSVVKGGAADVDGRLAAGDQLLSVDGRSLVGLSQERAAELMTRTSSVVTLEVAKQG

[6] = molecular target: T1, GST-PSD95 PDZ domains 1-3 fusion protein; assay: G assay, biotinylated peptide titrated on plate-bound GST-PDZ, saturation fit (apparent affinity)
[7] = molecular target: T6, GST-KIAA0561 PDZ domain fusion protein (UniProt O60307 948-1038); assay: A/G plate assay (TABLE 2)
T6 construct: domain: PDZ domain 1 (of 1); AA numbers count on the GenBank entry; also called K561; not shown: glutathione-S transferase (GST) as encoded by vector pGEX-3X (Pharmacia)
T6 sequence: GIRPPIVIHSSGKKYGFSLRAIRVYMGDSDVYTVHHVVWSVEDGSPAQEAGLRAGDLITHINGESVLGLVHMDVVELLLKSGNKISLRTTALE

[8] = molecular target: T7, GST-TIAM1 PDZ domain fusion protein (UniProt Q13009 844-931); assay: A/G plate assay (TABLE 2)
T7 construct: domain: PDZ 1 (of 1); AA numbers count on the GenBank entry; also called T-lymphoma invasion and metastasis inducing protein 1; not shown: glutathione-S transferase (GST) as encoded by vector pGEX-3X (Pharmacia)

[9] = molecular target: T8, GST-KIAA0303 PDZ domain fusion protein (UniProt O15021 1139-1229); assay: A/G plate assay (TABLE 2)
T8 construct: domain: PDZ domain 1 (of 1); AA numbers count on the GenBank entry; also called K303; not shown: glutathione-S transferase (GST) as encoded by vector pGEX-3X (Pharmacia)
T8 sequence: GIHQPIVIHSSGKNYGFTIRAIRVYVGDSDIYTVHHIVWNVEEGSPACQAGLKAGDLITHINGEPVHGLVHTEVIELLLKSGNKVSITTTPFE

T1 sequence (P78352 other isoform, or with tags, fused parts or gaps): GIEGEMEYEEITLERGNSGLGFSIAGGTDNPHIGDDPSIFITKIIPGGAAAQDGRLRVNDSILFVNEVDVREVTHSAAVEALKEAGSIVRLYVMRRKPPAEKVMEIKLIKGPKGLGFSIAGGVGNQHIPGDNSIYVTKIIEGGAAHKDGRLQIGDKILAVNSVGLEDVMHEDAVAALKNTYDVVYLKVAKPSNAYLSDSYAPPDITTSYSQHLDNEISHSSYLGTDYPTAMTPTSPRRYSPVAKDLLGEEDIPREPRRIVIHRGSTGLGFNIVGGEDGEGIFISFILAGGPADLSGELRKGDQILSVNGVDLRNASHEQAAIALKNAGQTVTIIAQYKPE
T7 sequence (Q13009 other isoform, or with tags, fused parts or gaps): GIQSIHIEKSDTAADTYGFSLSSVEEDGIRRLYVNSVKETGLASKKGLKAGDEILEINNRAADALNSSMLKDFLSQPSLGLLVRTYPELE

Binder: Biotin-VTSPNKHLGLVTPHKTELV [CD83 C-terminal PL peptide AA47L]
binding result [1]: binds

Binder: Biotin-SSAKSSNKNKKNKDKEYYV [Neurexin C-terminal PL peptide AA38L]
binding result [2]: binds

Binder: Biotin-QFMTADETRNLQNVDMKIGV [CD44 C-terminal PL peptide AA9L]
binding result [3]: binds | binding result [2]: binds

Binder: Biotin-KDSRPSFVGSSSGHTSTTL [CDW128B (IL8RB) C-terminal PL peptide AA29.2L]
binding result [1]: binds

Binder: Biotin-EVICYIEKPGVETLEDSVF [CDW125 (IL5R) C-terminal PL peptide AA28L]
binding result [4]: binds

Binder: Biotin-KKGTYLTDETHREVKFTSL [CD46 (Form 1) C-terminal PL peptide AA10L]
binding result [1]: binds

Binder: Biotin-TTNNNPNSAVNIKKIFTDV [KV1.3 C-terminal PL peptide AA33L]
binding result [1]: binds

Binder: Biotin-KDITSDSENSNFRNEIQSLV (also called AAI3L) [CD95 (Fas) C-terminal PL peptide AA13L]
Kd [6]: 85 µM

Second part, the binder after the results:

binding result [1]: binds | binding result [5]: binds | binding result [2]: no binding
Binder: Biotin-QGDPALQDAGDSSRKEYFI (also called GC) [Glycophorin C C-terminal PL peptide AA37L]

binding result [1]: binds | binding result [5]: binds
Binder: Biotin-TREDIYVNYPTFSRRPKTRV [DNAM-1 C-terminal PL peptide AA22L]

binding result [7]: binds
Binder: Biotin-SSKSKSSEESQTFFGLYKL (also called FAS Ligand) [FasL C-terminal PL peptide AA23L-M]

binding result [1]: binds
Binder: Biotin-SVFSIPTLWSPWPPSSSSQL (also called CD3-eta; CD3-η) [CD3n C-terminal PL peptide AA4L]

binding result [8]: binds | binding result [9]: binds | binding result [2]: binds
Binder: Biotin-ARKANMKGSYSLVEAQKSKV [VCAM1 C-terminal PL peptide AA17L]

binding result [1]: binds
Binder: Biotin-QATSRNGHSARQHVVADTEL [CD34 C-terminal PL peptide AA7L]

binding result [8]: binds
Binder: Biotin-PKQANGGAYQKPTKQEEFYA [CD138 C-terminal PL peptide AA18L]
